Assay results published in patent US20070185311A1 (EPIX MEDICAL INC A DELAWARE, published 2007).
Starred links: 1 amine or outer side, 2 acyl side, 3 side chain; linkers in the order of their positions; H or OH if unused. Positions of bridges follow the written chain, without caps; N, C: chain ends. Non-standard residues stand in square brackets, D forms with d. Primed or numbered codes have the meaning given here. No end group written: not given here. Tyr(3-NO2) = N[C@@H](Cc1ccc(O)c([N+](=O)[O-])c1)C(=O)O; Phe(4-OMe) = COc1ccc(C[C@H](N[*:1])C(=O)[*:2])cc1; Phe(3-CF3) = N[C@@H](Cc1cccc(C(F)(F)F)c1)C(=O)O; Phe(4-CF3) = N[C@@H](Cc1ccc(C(F)(F)F)cc1)C(=O)O; Bpa = N[C@@H](Cc1ccc(C(=O)c2ccccc2)cc1)C(=O)O; Phe(4-CH2NH2) = NCc1ccc(C[C@H](N)C(=O)O)cc1; Tyr(3-Cl) = N[C@@H](Cc1ccc(O)c(Cl)c1)C(=O)O; Tyr(3-I) = N[C@@H](Cc1ccc(O)c(I)c1)C(=O)O; Phe(4-Br) = N[C@@H](Cc1ccc(Br)cc1)C(=O)O; Phe(4-CN) = N#Cc1ccc(C[C@H](N)C(=O)O)cc1; Phe(4-NH2) = Nc1ccc(C[C@H](N)C(=O)O)cc1; Phe(2-OMe) = COc1ccccc1C[C@H](N)C(=O)O; Phe(3-Me) = Cc1cccc(C[C@H](N)C(=O)O)c1; Phe(4-F) = N[C@@H](Cc1ccc(F)cc1)C(=O)O; Phe(4-I) = N[C@@H](Cc1ccc(I)cc1)C(=O)O; Phe(4-Me) = Cc1ccc(C[C@H](N)C(=O)O)cc1; 1Nal = N[C@@H](Cc1cccc2ccccc12)C(=O)O; Hyp = O=C(O)[C@@H]1C[C@@H](O)CN1; 3Pal = N[C@@H](Cc1cccnc1)C(=O)O; 4Pal = N[C@@H](Cc1ccncc1)C(=O)O; Tyr(2-F)′ = not defined here; MTyr = not defined here; Cmp = not defined here

Target: DD(E) fragment of fibrin
Assay: affinity to DD(E) fragment of fibrin

Binder | Kd
LPCDYYGTCXD (Bip at 10; dD at 11) [L-P-C-D-Y-Y-G-T-C-Bip-dD] | < 10000 nM
LPCDYYGTCXD (Me-Bip at 10) [L-P-C-D-Y-Y-G-T-C-Me-Bip-D] | < 10000 nM
LPCDYYGTC[MeL][Cmp] (cysteine pairing not given here; reading uncertain; also: printed as L-P-C-D-Y-Y-G-T-C-MeL-Cmp) [L-P-C-D-Y-Y-G-T-C-MeL-Cmp] | < 10000 nM
[Phe(4-CF3)]HC[Hyp][Tyr(3-I)]DLCHI (disulfide 3-8 (inferred)) [F(4-CF3)-H-C-Hyp-Y(3-I)-D-L-C-H-I] | < 100 nM
[Phe(4-OMe)][His(Bzl)]C[Hyp][Tyr(3-Cl)]DLCHI (disulfide 3-8 (inferred)) [F(4-OMe)-H(Bzl)-C-Hyp-Y(3-Cl)-D-L-C-H-I] | < 100 nM
[Phe(4-OMe)]HC[Hyp][Tyr(3-Cl)]DLCH[Bpa]L (disulfide 3-8 (inferred)) [F(4-OMe)-H-C-Hyp-Y(3-Cl)-D-L-C-H-Bpa-L] | < 100 nM
[Tyr(3-NO2)]HC[Hyp][Tyr(3-I)]DLCHI (disulfide 3-8 (inferred)) [Y(3-NO2)-H-C-Hyp-Y(3-I)-D-L-C-H-I] | < 100 nM
FHC[Hyp][Tyr(3-I)]DLCH[Phe(3-CF3)] (disulfide 3-8 (inferred)) [F-H-C-Hyp-Y(3-I)-D-L-C-H-F(3-CF3)] | < 100 nM
[Phe(34-F2)]HC[Hyp][Tyr(3-I)]DLCHI (disulfide 3-8 (inferred)) [F(34-F2)-H-C-Hyp-Y(3-I)-D-L-C-H-I] | < 100 nM
[Phe(4-OMe)]HC[Hyp][Tyr(3-I)]DLCHI (disulfide 3-8 (inferred)) [F(4-OMe)-H-C-Hyp-Y(3-I)-D-L-C-H-I] | < 100 nM
[Phe(4-CN)]HC[Hyp][Tyr(3-I)]DLCHI (disulfide 3-8 (inferred)) [F(4-CN)-H-C-Hyp-Y(3-I)-D-L-C-H-I] | < 100 nM
[Phe(4-F)]HC[Hyp][Tyr(3-I)]DLCHI (disulfide 3-8 (inferred)) [F(4-F)-H-C-Hyp-Y(3-I)-D-L-C-H-I] | < 100 nM
[1Nal]HC[Hyp][Tyr(3-I)]DLCHI (disulfide 3-8 (inferred)) [1Nal-H-C-Hyp-Y(3-I)-D-L-C-H-I] | < 100 nM
[Phe(2-OMe)]HC[Hyp][Tyr(3-I)]DLCHI (disulfide 3-8 (inferred)) [F(2-OMe)-H-C-Hyp-Y(3-I)-D-L-C-H-I] | < 100 nM
FHC[Hyp][Tyr(3-Cl)]DLCHI (disulfide 3-8 (inferred)) [F-H-C-Hyp-Y(3-Cl)-D-L-C-H-I] | < 100 nM
[Tyr(2-F)′]HC[Hyp][Tyr(3-I)]DLCHI (disulfide 3-8 (inferred)) [Y(2-F)-H-C-Hyp-Y(3-I)-D-L-C-H-I] | < 100 nM
LPCDYYGTCXD (Bip at 10) [L-P-C-D-Y-Y-G-T-C-Bip-D] | < 10000 nM

Further lines, results first:

Kd | Binder
< 100 nM | [DopaMe2]HC[Hyp][Tyr(3-I)]DLCHI (disulfide 3-8 (inferred)) [DopaMe2-H-C-Hyp-Y(3-I)-D-L-C-H-I]
< 100 nM | [Phe(4-OMe)]HC[Hyp][Tyr(3-Cl)]DLCHI (disulfide 3-8 (inferred)) [F(4-OMe)-H-C-Hyp-Y(3-Cl)-D-L-C-H-I]
< 100 nM | F[His(Bzl)]C[Hyp][Tyr(3-Cl)]DLCHIL (disulfide 3-8 (inferred)) [F-H(Bzl)-C-Hyp-Y(3-Cl)-D-L-C-H-I-L]
< 100 nM | [Phe(4-OMe)][His(Bzl)]C[Hyp][Tyr(3-I)]DLCH[Bpa] (disulfide 3-8 (inferred)) [F(4-OMe)-H(Bzl)-C-Hyp-Y(3-I)-D-L-C-H-Bpa]
< 100 nM | [Phe(4-NH2)]HC[Hyp][Tyr(3-I)]DLCHI (disulfide 3-8 (inferred)) [F(4-NH2)-H-C-Hyp-Y(3-I)-D-L-C-H-I]
< 100 nM | [Phe(4-OMe)]HC[Hyp][Tyr(3-I)]DLCH[Bpa]L (disulfide 3-8 (inferred)) [F(4-OMe)-H-C-Hyp-Y(3-I)-D-L-C-H-Bpa-L]
< 100 nM | FHC[Hyp][Tyr(3-I)]DLCHIL (disulfide 3-8 (inferred)) [F-H-C-Hyp-Y(3-I)-D-L-C-H-I-L]
< 100 nM | [MTyr]HC[Hyp][Tyr(3-I)]DLCHI (disulfide 3-8 (inferred); reading uncertain) [MTyr-H-C-Hyp-Y(3-I)-D-L-C-H-I]
< 100 nM | [4Pal]HC[Hyp][Tyr(3-I)]DLCHI (disulfide 3-8 (inferred)) [4Pal-H-C-Hyp-Y(3-I)-D-L-C-H-I]
< 100 nM | [Phe(4-I)]HC[Hyp][Tyr(3-I)]DLCHI (disulfide 3-8 (inferred)) [F(4-I)-H-C-Hyp-Y(3-I)-D-L-C-H-I]
< 100 nM | [Phe(4-Me)]HC[Hyp][Tyr(3-I)]DLCHI (disulfide 3-8 (inferred)) [F(4-Me)-H-C-Hyp-Y(3-I)-D-L-C-H-I]
< 100 nM | [Phe(4-OMe)]HC[Hyp][Tyr(3-Cl)]DLCHIL (disulfide 3-8 (inferred)) [F(4-OMe)-H-C-Hyp-Y(3-Cl)-D-L-C-H-I-L]
< 100 nM | [Phe(3-Me)]HC[Hyp][Tyr(3-I)]DLCHI (disulfide 3-8 (inferred)) [F(3-Me)-H-C-Hyp-Y(3-I)-D-L-C-H-I]
< 100 nM | [Phe(4-OMe)]HC[Hyp][Tyr(3-I)]DLCH[Bpa] (disulfide 3-8 (inferred)) [F(4-OMe)-H-C-Hyp-Y(3-I)-D-L-C-H-Bpa]
< 100 nM | [Tyr(3-I)]HC[Hyp][Tyr(3-I)]DLCHI (disulfide 3-8 (inferred)) [Y(3-I)-H-C-Hyp-Y(3-I)-D-L-C-H-I]
< 100 nM | FHC[Hyp][Tyr(3-I)]DLC[3Pal]I (disulfide 3-8 (inferred)) [F-H-C-Hyp-Y(3-I)-D-L-C-3Pal-I]
< 100 nM | [Phe(4-CH2NH2)]HC[Hyp][Tyr(3-I)]DLCHI (disulfide 3-8 (inferred)) [F(4-CH2NH2)-H-C-Hyp-Y(3-I)-D-L-C-H-I]
< 100 nM | FHC[Hyp][Tyr(3-I)]DLCHI (disulfide 3-8 (inferred)) [F-H-C-Hyp-Y(3-I)-D-L-C-H-I]
< 100 nM | [Phe(4-Br)]HC[Hyp][Tyr(3-I)]DLCHI (disulfide 3-8 (inferred)) [F(4-Br)-H-C-Hyp-Y(3-I)-D-L-C-H-I]
< 100 nM | [3Pal]HC[Hyp][Tyr(3-I)]DLCHI (disulfide 3-8 (inferred)) [3Pal-H-C-Hyp-Y(3-I)-D-L-C-H-I]
